The values below come from the supplement of paper PMC12764529.

± gives the half width of the 95% confidence interval.

Series [1] can be described thus: folding stability dG unfold from trypsin proteolysis; higher = more stable. The procedure, abridged:
(§1)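 Bayesian fitting of sequencing counts gave K50 for each design. Unfolding free energy followed by setting this against a sequence-predicted unfolded-state K50 and a shared folded-state K50, either per protease or with trypsin and chymotrypsin combined. The designs, under 80 residues and lacking cysteine, were digested in a PA-tagged cDNA display format at 11 threefold-diluted protease concentrations and without protease, and only those with AlphaFold2 dimer inter-PAE above 15 were kept.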

The nature of series [2]: folding stability dG unfold from chymotrypsin proteolysis; higher = more stable. Put shortly: as §1
A short description of series [3]: folding stability dG unfold (combined trypsin and chymotrypsin); higher = more stable. The procedure, abridged:
as §1

Turning to “SAGGSAGGSAMTIVVKSEEEAKKLAELLNAEVVEEKDGYLTIKLEGMSEEERKKILELLKKSAGGSAGGSAG [r3_398_TrROS_Hall]”, the “folding stability dG unfold” value in series [1] came to 1.96 ± 0.13 kcal/mol; in series [2], 3.03 ± 0.17 kcal/mol; in series [3], 2.71 ± 0.11 kcal/mol.
For “SAGGSAGGSAMTLKEKAEAIEKEKGVKITVTVTYPDGTVRTLTPEELSSIPPGPYTLSFTTPSAGGSAGGSA [r18_394_JUSTAS]”, the results for the “folding stability dG unfold” value in series [1], in series [2] and in series [3] were 1.73 ± 0.023 kcal/mol, 1.44 ± 0.16 kcal/mol and 1.67 ± 0.099 kcal/mol, respectively.
Consider “SAGGSAGGSAMTPPEELKEKIAAEVSPDTTVTETFPEEPLVVKITRNPSGTITVEVVSPEELSAGGSAGGSA [r18_61_JUSTAS]”, for which the “folding stability dG unfold” value in series [1] is -0.418 ± 0.11 kcal/mol; in series [2] it was 0.906 ± 0.049 kcal/mol; in series [3], 0.546 ± 0.088 kcal/mol.
On to “SAGGSAGGSAMTPVTTTQTISFPGSEEEARAEAERIREELEAKGLTVSFEFLPGGTLKITVASAGGSAGGSA [r18_262_JUSTAS]”, for which the results for the “folding stability dG unfold” value in series [1], in series [2] and in series [3] were 3.18 ± 0.064 kcal/mol, 2.398 ± 0.021 kcal/mol and 2.74 ± 0.038 kcal/mol, respectively.
With “SAGGSAGGSAMTRDVTIKVPPGVTPEEVFEKLKKENPNVTSYTTTTLPDGTITVTITIEDSSAGGSAGGSAG [r3_371_JUSTAS]”, the “folding stability dG unfold” value in series [1] came out at 3.94 ± 0.23 kcal/mol; in series [2], 4.04 ± 0.12 kcal/mol; in series [3] it was 4.05 ± 0.19 kcal/mol.
On the same counts, the results for “SAGGSAGGSAMTVPLDTLTPERLRELLAENPERVVLKSADSVLVLSRDPATGRLTVTSHELRSAGGSAGGSA [r18_75_JUSTAS]” are 0.951 ± 0.011 kcal/mol, 1.35 ± 0.014 kcal/mol and 1.22 ± 0.022 kcal/mol.
As to “SAGGSAGGSAMVLNVPLEELLKLLGVPKEEVSYKKLEDESYELTLPDGTKVKVIVPKEILESAGGSAGGSAG [r3_477_JUSTAS]”, the “folding stability dG unfold” value worked out at 2.81 ± 0.098 kcal/mol in series [1], 2.86 ± 0.036 kcal/mol in series [2] and 2.91 ± 0.13 kcal/mol in series [3].
For “SAGGSAGGSAMYTISYDPSTGTVTVSTPSGTTTTVPVADGPVTLTVTNPDGTTTTITLEGASAGGSAGGSAG [r3_499_JUSTAS]”, the “folding stability dG unfold” value in series [1] amounted to 2.56 ± 0.093 kcal/mol; in series [2], 2.42 ± 0.029 kcal/mol; in series [3] it was 2.44 ± 0.068 kcal/mol.
Take “SAGGSAGGSAMYVKVTFTYPDGSTTTVTTQLDEEEAKKLVEELAPLPVEAKLEIIPEDVPESAGGSAGGSAG [r3_35_JUSTAS]”: the “folding stability dG unfold” value in series [1] is 0.344 ± 0.073 kcal/mol; in series [2], 0.249 ± 0.23 kcal/mol; in series [3] it was 0.655 ± 0.17 kcal/mol.
With “SAGGSAGGSANFKILAVEVQPAGNGIMVRAIIEFPDGWIIKFSFWFRNDGIKINIEIVPLDDSAGGSAGGSA [r18_79_TrROS]”, the figures for the “folding stability dG unfold” value in series [1], in series [2] and in series [3] were 4.7 ± 0.15 kcal/mol, 5.7 ± 0.12 kcal/mol and 5.68 ± 0.17 kcal/mol, respectively.
On to “SAGGSAGGSANGWVFMIHFNIEQEPVPAEELGMPPGDPGYEDMYVIKIKSISFFWVPAGDFSAGGSAGGSAG [r3_488_TrROS]”, for which the “folding stability dG unfold” value in series [1] is 3.27 ± 0.09 kcal/mol; in series [2] it was 4.72 ± 0.12 kcal/mol; in series [3], 4.38 ± 0.085 kcal/mol.
On to “SAGGSAGGSAPATITSIEVEERTGPDGRTYRVLRVRLADTGEEVEIVVPGMSLEEVLAALASSAGGSAGGSA [r18_345_TrROS_Hall]”, for which the “folding stability dG unfold” value in series [1] turned out to be 2.86 ± 0.031 kcal/mol; in series [2], 2.937 ± 0.019 kcal/mol; in series [3], 2.93 ± 0.082 kcal/mol.
Turning to “SAGGSAGGSAPETSLTSTFEFRFEVDGELYAVRIERRVLLSADGDLRVETRIEIIPIPPDVPASAGGSAGGS [r12_927_TrMRF]”, the results for the “folding stability dG unfold” value in series [1], in series [2] and in series [3] were 3.72 ± 0.13 kcal/mol, 5.1 ± 0.12 kcal/mol and 4.79 ± 0.11 kcal/mol, respectively.
The corresponding values for “SAGGSAGGSAPFNINDPNIGEVEIFPGPNAVILIKLPDGGYLVITNNGEDNVSIELVSDDESAGGSAGGSAG [r3_62_TrMRF]” are 1.72 ± 0.13 kcal/mol, 0.468 ± 0.16 kcal/mol and 1.15 ± 0.15 kcal/mol.
For the sequence “SAGGSAGGSAPFQIEDIEVEYHRMPPGMPYYPVRARLPGTGREVEIHMPGMPVEDVLDRIIDSAGGSAGGSA [r18_345_TrROS]”, the “folding stability dG unfold” value in series [1] was -0.446 ± 0.13 kcal/mol; in series [2], -0.0225 ± 0.088 kcal/mol; in series [3] it was -0.141 ± 0.061 kcal/mol.
On the same counts, the results for “SAGGSAGGSAPKIIVVKPEDIVEAVKKADPNEKVLLFDPETGEIYEITPDKMEFIEKIPPGESAGGSAGGSA [r18_246_TrMRF]” are 0.0456 ± 0.13 kcal/mol, 0.884 ± 0.039 kcal/mol and 0.466 ± 0.22 kcal/mol.
Turning to “SAGGSAGGSAPMKIDEITDVYPNPNRPKIIIKWRGPNGQPMVFDPENGKWMTPEEALDALKSAGGSAGGSAG [r3_206_TrROS]”, the “folding stability dG unfold” value in series [1] amounted to 0.571 ± 0.059 kcal/mol; in series [2], 1.12 ± 0.062 kcal/mol; in series [3], 0.935 ± 0.046 kcal/mol.
Consider “SAGGSAGGSAPNLKLKIKLDIHVFPDGWLYVSTKIEIENPGKPVEFTIMFRFPIPPNEPAPSAGGSAGGSAG [r3_383_TrROS]”, for which the “folding stability dG unfold” value in series [1] was determined as 3.85 ± 0.27 kcal/mol; in series [2], 5.35 ± 0.15 kcal/mol; in series [3], 5.16 ± 0.27 kcal/mol.
On the same counts, the results for “SAGGSAGGSAPNQTWVLRITIKFPNGKKRSFQFTFPLDDIKEEIEEEFGIDDIDIEWQPLDSAGGSAGGSAG [r3_220_TrROS]” are 2.63 ± 0.061 kcal/mol, 2.77 ± 0.069 kcal/mol and 2.84 ± 0.12 kcal/mol.
As for “SAGGSAGGSAPPGQEFPFEPVEEESIPIYDPDNGEPPLTISVWKMRMPGGPPMTFIMISPMSAGGSAGGSAG [r3_166_TrROS]”, the “folding stability dG unfold” value in series [1] was 1.92 ± 0.034 kcal/mol; in series [2], 2.32 ± 0.043 kcal/mol; in series [3], 2.17 ± 0.069 kcal/mol.
The corresponding values for “SAGGSAGGSAPPGQQLRVRIRIYNPNNGEPKREREFPGMTVDDLKEWAQKNGWRIREIEVDSAGGSAGGSAG [r3_423_TrROS]” are 0.559 ± 0.1 kcal/mol, 1.49 ± 0.2 kcal/mol and 1.3 ± 0.095 kcal/mol.
On to “SAGGSAGGSAPPLKIVIRIEFPDPNGKKQEYEIPADYPLEQVKDNAEEPFPGAKIENIEVVSAGGSAGGSAG [r3_60_TrROS]”, for which the figures for the “folding stability dG unfold” value in series [1], in series [2] and in series [3] were 1.02 ± 0.057 kcal/mol, 1.33 ± 0.071 kcal/mol and 1.21 ± 0.049 kcal/mol, respectively.
On the same counts, the results for “SAGGSAGGSAPPNVEIKLTMEPYKPPDGNKYYRIPIEVNKKPWQAKEIADWLQPEGFRIEPSAGGSAGGSAG [r3_157_TrROS]” are 0.238 ± 0.18 kcal/mol, 0.152 ± 0.41 kcal/mol and 0.151 ± 0.23 kcal/mol.
Turning to “SAGGSAGGSAPPPAKVKVITITETRVTYDPDTDELTVETVTLTLVVAPDGHIYVDGRWIPAEDLSAGGSAGG [r6_514_TrROS_Hall]”, the “folding stability dG unfold” value in series [1] stood at 2.89 ± 0.064 kcal/mol; in series [2], 3.68 ± 0.14 kcal/mol; in series [3], 3.37 ± 0.11 kcal/mol.
With “SAGGSAGGSAPPVVRVTVPLPDGSVLEVEYFPDTGLVRVTLVDADGTPTTVTLPAAEVLALFSAGGSAGGSA [r18_219_TrMRF]”, the “folding stability dG unfold” value was determined as 2.04 ± 0.042 kcal/mol in series [1], 3.026 ± 0.019 kcal/mol in series [2] and 2.73 ± 0.045 kcal/mol in series [3].
Consider “SAGGSAGGSAPRPIEIMFPWDSPEDAHEEAEEIARTFAQEDNIKVKVEYYPREGWVKVKIRVSAGGSAGGSA [r18_368_TrROS]”, for which the entries for the “folding stability dG unfold” value in series [1], in series [2] and in series [3] were 1.21 ± 0.085 kcal/mol, 1.57 ± 0.34 kcal/mol and 1.38 ± 0.21 kcal/mol, respectively.
For the sequence “SAGGSAGGSAPVIRIEVDGKVYEIPADVLKEKGLTIEELAEELEKKHNIKVEKVEDGTIRVTSAGGSAGGSA [r18_7_TrROS_Hall]”, the “folding stability dG unfold” value in series [1] was 1.66 ± 0.067 kcal/mol; in series [2], 2.41 ± 0.039 kcal/mol; in series [3], 2.1 ± 0.078 kcal/mol.
As to “SAGGSAGGSAPVPINITFPDGSVAVNGSPDVAYLYFPEKGTIYRIPIDPDTNIITIEEVFKVPSAGGSAGGS [r12_539_TrMRF]”, the “folding stability dG unfold” value in series [1] was 0.744 ± 0.043 kcal/mol; in series [2], 1.03 ± 0.067 kcal/mol; in series [3] it was 0.964 ± 0.05 kcal/mol.
Take “SAGGSAGGSAPYFVRIKIENPDNGKPHSIEIPPNMTPEQAKEMAEELAEMHGWKITDVEYFPSAGGSAGGSA [r18_322_TrROS]”: the “folding stability dG unfold” value came to 0.227 ± 0.088 kcal/mol in series [1], 0.433 ± 0.11 kcal/mol in series [2] and 0.371 ± 0.068 kcal/mol in series [3].
On the same counts, the results for “SAGGSAGGSAQWVIRIKMPNGSTRELRIPGMTPEKAREIAKELADQNNIKDVDIYPPGQKISAGGSAGGSAG [r3_160_TrROS]” are 0.981 ± 0.041 kcal/mol, 0.393 ± 0.17 kcal/mol and 0.727 ± 0.1 kcal/mol.
Take “SAGGSAGGSAREPPEAELVDERERTRPDGRPYTIAILRNPRDPREYLRIPGLGEWYPLDKLSAGGSAGGSAG [r3_181_TrMRF]”: the “folding stability dG unfold” value in series [1] was -0.574 ± 0.28 kcal/mol; in series [2], 0.431 ± 0.22 kcal/mol; in series [3], 0.126 ± 0.12 kcal/mol.
With “SAGGSAGGSARIYVTLPDGTVLEVEFEGEEEAERVAEEIEAELKEKGIEPKSITIEPVSPEEGSAGGSAGGS [r12_301_JUSTAS]”, the “folding stability dG unfold” value was 0.723 ± 0.053 kcal/mol in series [1], 1.69 ± 0.075 kcal/mol in series [2] and 1.27 ± 0.16 kcal/mol in series [3].
For “SAGGSAGGSARRDEVVERARERLLEEHPDLKPGETATVVVRDPETDEVYVFRFDGDGRVYGSAGGSAGGSAG [r3_441_TrMRF]”, the “folding stability dG unfold” value in series [1] is 0.59 ± 0.09 kcal/mol; in series [2], 1.59 ± 0.11 kcal/mol; in series [3] it was 1.31 ± 0.16 kcal/mol.
In the case of “SAGGSAGGSASAEEEARRLAPEGKLVYKITKGNETTIVALTPEEAEALKKKNPDVEIEPILLSAGGSAGGSA [r18_198_JUSTAS]”, the “folding stability dG unfold” value in series [1] was 1.37 ± 0.035 kcal/mol; in series [2], 3.176 ± 0.021 kcal/mol; in series [3], 2.81 ± 0.087 kcal/mol.
As to “SAGGSAGGSASAEIVPLTLTFPVKFKKDPNGKTKEKTVEVKIELYVIRDPNGNLYTIAKISLSAGGSAGGSA [r18_284_TrMRF]”, the results for the “folding stability dG unfold” value in series [1], in series [2] and in series [3] were 3.01 ± 0.14 kcal/mol, 4.24 ± 0.089 kcal/mol and 3.98 ± 0.15 kcal/mol, respectively.
As to “SAGGSAGGSASFTTTPVQFPDNTRVTTVTLDPETGTTIATVTSPSATSLVTIPGDTTTLTGSSAGGSAGGSA [r18_212_JUSTAS]”, the “folding stability dG unfold” value in series [1] was 0.551 ± 0.023 kcal/mol; in series [2] it was -0.246 ± 0.087 kcal/mol; in series [3] it was 0.286 ± 0.045 kcal/mol.
